Biological target: PIFtide (24 residue synthetic peptide encompassing the PDK1 binding site on PIF) (human)
Assay: method not stated

PIFtide (24 residue synthetic peptide encompassing the PDK1 binding site on PIF) (human), sequence (peptide, as listed by the source): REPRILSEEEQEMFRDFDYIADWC

**Q.** With “GST-PDK1[K115A] (from UniProt O15530 1-556) (enzyme)” as the substance, how does the fold decrease in affinity (against wild type PDK1) read?
**A.** 10 fold

— patent publication US20080009025A1, “PROTEIN KINASE REGULATION” (priority 1999, published 2008)
